B1: GST-CC (GST fusion protein of the N-terminal coiled coil domain of KLC, amino acids 30-200) (other, UniProt O88447 30-200, looked up)
chain: QVIQGLEALKNEHNSILQSLLETLKCLKKDDESNLVEEKSSMIRKSLEMLELGLSEAQVMMALSNHLNAVESEKQNVRAQVRRLCQENQWLRDELANTQQKLQKSEQSVAQLEEEKKHLEFMNQLKKYDDDISPSEDKDSDSSKEPLDDLFPNDEDEPGQGIQHSDSSAAA
notes: range 30-200; not shown: glutathione S-transferase
B2: synaptophysin, endogenous, mouse extracts (other, UniProt Q62277 1-314, looked up)
chain: MLLLADMDVVNQLVAGGQFRVVKEPLGFVKVLQWVFAIFAFATCGSYTGELRLSVECANKTESALNIEVEFEYPFRLHQVYFDAPSCVKGGTTKIFLVGDYSSSAEFFVTVAVFAFLYSMGALATYIFLQNKYRENNKGPMMDFLATAVFAFMWLVSSSAWAKGLSDVKMATDPENIIKEMPMCRQTGNTCKELRDPVTSGLNTSVVFGFLNLVLWVGNLWFVFKETGWAAPFMRAPPGAPEKQPAPGDAYGDAGYGQGPGGYGPQDSYGPQGGYQPDYGQPASGGGGGYGPQGDYGQQGYGQQGAPTSFSNQM
notes: also called SYP
B3: GST-KLC1 (glutathione S-transferase fused to kinesin light chain 1, all but the first seven amino acids) (other, UniProt O88447 8-541, looked up, not shown: a dimerising Fc or GST)
chain: MVYIKEEKLENVTQDEIISKTKQVIQGLEALKNEHNSILQSLLETLKCLKKDDESNLVEEKSSMIRKSLEMLELGLSEAQVMMALSNHLNAVESEKQNVRAQVRRLCQENQWLRDELANTQQKLQKSEQSVAQLEEEKKHLEFMNQLKKYDDDISPSEDKDSDSSKEPLDDLFPNDEDEPGQGIQHSDSSAAAARQGYEIPARLRTLHNLVIQYASQGRYEVAVPSCKQALEDLEKTSGHDHPDVATMLNILALVYRDQNKYKDAANLLNDALAIREKTLGRDHPAVAATLNNLAVLYGKRGKYKEAEPLCKRALEIREKVLGKDHPDVAKQLNNLALLCQNQGKYEEVEYYYQRALGIYQTKLGPDRTPNVAKTKNNLASCYLKQGKFKQAETLYKEILTRAHEAEFGSVDDENKPIWMHAEEREECKGKQKDGSAFGEYGGWYKACKVDSPTVTTTLKNLGALYRRQGKFEAAETLEEAAMRSRKQGLDNVHKQRVAEVLNDPESMEKRRSRESLNMDVVKYESGPDGGEEA
notes: range 8-end; also called GST fused to full-length KLC1
B4: GST-KLC2 (glutathione S-transferase fused to kinesin light chain 2, 591 amino acids of the largest cDNA clone) (other, UniProt O88448 9-599, looked up, not shown: a dimerising Fc or GST)
chain: EEKLSQDEIVLGTKAVIQGLETLRGEHRALLAPLASHEAGEAEPGSQERCLLLRRSLEAIELGLGEAQVILALSSHLGAVESEKQKLRAQVRRLVQENQWLREELAGTQQKLQRSEQAVAQLEEEKQHLLFMSQIRKLDEMLPQEEKGDVPKDSLDDLFPNEDEQSPAPSPGGGDVAAQHGGYEIPARLRTLHNLVIQYASQGRYEVAVPLCKQALEDLEKTSGHDHPDVATMLNILALVYRDQNKYKDAAHLLNDALAIREKTLGKDHPAVAATLNNLAVLYGKRGKYKEAEPLCKRALEIREKVLGKFHPDVAKQLSNLALLCQNQGKAEEVEYYYRRALEIYATRLGPDDPNVAKTKNNLASCYLKQGKYQDAETLYKEILTRAHEKEFGSVNGENKPIWMHAEEREESKDKRRDRRPMEYGSWYKACKVDSPTVNTTLRTLGALYRPEGKLEAAHTLEDCASRSRKQGLDPASQTKVVELLKDGSGRGHRRGSRDVAGPQSESDLEESGPAAEWSGDGSGSLRRSGSFGKLRDALRRSSEMLVRKLQGGGPQEPNSRMKRASSLNFLNKSVEEPVQPGGRVFLTAAL
notes: also called GST fused to full-length KLC2
B5: KIF5B-His fusion protein (amino acids 499-783 of KIF5B, His-tagged, pET-23b) (other, UniProt Q61768 499-783, looked up)
chain: AVNYDQKSQEVEDKTKEYELLSDELNQKSATLASIDAELQKLKEMTNHQKKRAAEMMASLLKDLAEIGIAVGNNDVKQPEGTGMIDEEFTVARLYISKMKSEVKTMVKRCKQLESTQTESNKKMEENEKELAACQLRISQHEAKIKSLTEYLQNVEQKKRQLEESVDSLGEELVQLRAQEKVHEMEKEHLNKVQTANEVKQAVEQQIQSHRETHQKQISSLRDEVEAKEKLITDLQDQNQKMVLEQERLRVEHERLKATDQEKSRKLHELTVMQDRREQARQDLK
notes: range 499-783; also called C-terminal stalk of KIF5B; KIF5B construct; not shown: His tag of vector pET-23b
B6: GST-TPR (GST fusion protein of the TPR domains of KLC1, amino acids 167-541) (other, UniProt O88447 167-541, looked up)
chain: KDSDSSKEPLDDLFPNDEDEPGQGIQHSDSSAAAARQGYEIPARLRTLHNLVIQYASQGRYEVAVPSCKQALEDLEKTSGHDHPDVATMLNILALVYRDQNKYKDAANLLNDALAIREKTLGRDHPAVAATLNNLAVLYGKRGKYKEAEPLCKRALEIREKVLGKDHPDVAKQLNNLALLCQNQGKYEEVEYYYQRALGIYQTKLGPDRTPNVAKTKNNLASCYLKQGKFKQAETLYKEILTRAHEAEFGSVDDENKPIWMHAEEREECKGKQKDGSAFGEYGGWYKACKVDSPTVTTTLKNLGALYRRQGKFEAAETLEEAAMRSRKQGLDNVHKQRVAEVLNDPESMEKRRSRESLNMDVVKYESGPDGGEEA
notes: range 167-541; The range is printed without a hyphen (167541); not shown: glutathione S-transferase

Key:
[1] = molecular target: T1, APP-GFP fusion protein (C-terminal 42 amino acids of human APP fused to GFP, from a His-tagged pRSETb-EGFP … (human, UniProt P05067 729-770; P42212 1-238 = GFP); experiment: GST pull-down, Western blot for GFP
T1 construct: Expressed in bacteria, purified on Ni-NTA-agarose; also called C-terminal tail of APP fused to GFP; APP C-terminus; not shown: His tag and leader of the pRSETb vector
Description: (§1) Briefly, purified GST, GST-KLC1 and GST-KLC2 bound to glutathione agarose beads were incubated with 10 μg of indicated purified fusion protein in 150 μl Buffer B (20 mM Tris-Cl, pH 7.5, 50 mM KCl, 100 mM NaCl, 2 mM CaCl_2, 2 mM MgCl_2, 5 mM DTT, 1% BSA, and protease inhibitors) for 1 hr at 4° C. For the antibody inhibition experiments, the antibody was pre-bound to the beads for 1 hr at 4° C. and then incubated for 1 hr with the indicated protein. The unbound protein (in 150 μl total volume) was saved, and the beads were washed three times with Buffer B. Bound proteins were eluted with 50 μl of elution buffer (50 mM glutathione, 50 mM Tris-Cl, pH 8.0). The bound (50 μl) and unbound (50 μl, i.e., one-third of total volume) proteins were then analyzed by SDS-PAGE followed by Western blotting.
(§2) To test directly if the C-terminus of APP interacts with the TPR domains of KLC, GST pull-down assays were conducted using GST fusion proteins of KLC1 that contained either the TPR domains (GST-TPR) or only the N-terminal coiled-coil region (GST-CC) (See, FIG. 5, Panel E). Purified APP-GFP protein bound to GST-TPR and not to GST-CC or to GST alone. In contrast, a KIF5B construct that contains part of a region previously found to bind to KLC (Diefenbach et al., [1998], supra; and Gauger and Goldstein, [1993], supra) bound to GST-CC, and not to GST-TPR.

[2] = molecular target: T2, GFP alone (UniProt P42212 1-238 = GFP, limits assumed); experiment: GST pull-down, Western blot for GFP
T2 construct: Control
Description: as §1, §2

[3] = molecular target: APP (amyloid precursor protein), endogenous, from mouse brain and sciatic nerve extracts (mouse, UniProt P12023 18-770, limits assumed); experiment: co-immunoprecipitation from mouse brain and sciatic nerve extracts, Western blot
Excerpt: Mouse brain (left side of panel; IP brain) or sciatic nerve (right side of panel; Supe) extracts were immunoprecipitated with a no antibody control (No Ab), the 63–90 antibody (which recognizes both KLC1 and KLC2; i.e., kinesin light chains 1 and 2), antibodies to KIF5B (ubiquitous KHC), or APP (C-terminal polyclonal antibody) or synaptotagmin (SYT). Panel B provides results showing the specificity of kinesin-I co-immunoprecipitation with APP. Co-immunoprecipitation of APP with KLC from wild-type (wt) and mutant (−/−) KLC1 brain extracts was done using 63–90 or antibodies specific to either KLC1 or KLC2, and then analyzed by Western blots using either 63–90 or APP (22C11) antibodies. Panel C provides results showing KLC1 dependence of KHC complexes with APP. Co-immunoprecipitation of APP with KHC from wild-type (wt) and mutant (−/−) KLC1 brain extracts were performed using antibodies to three different KHC subunits (KIF5A, KIF5B and KIF5C), and then analyzed by Western blots using either 63–90 or APP (22C11) antibodies, as shown in this Panel. […]
Sufficient quantities of either anti-KLC1 and anti-KLC2 (Rahman et al., [1998], supra), or anti-KIF5A and anti-KIF5B antibodies (Niclas et al., Neuron 12:1059–1072 [1994]) were added to the precleared lysate so as to completely immunoprecipitate the antigens in the lysate. […]

[4] = molecular target: T2, GFP alone; experiment: GST pull-down on glutathione agarose beads, Western blot for GFP; also under five buffer conditions
Description: as §1
In addition, the binding of APP-GFP or GFP alone to either GST-KLC1 or GST using four other buffers than Buffer B, namely (1) Buffer B without Ca^2+, (2) Buffer B+500 mM NaCl+1% NP-40, (3) Buffer A from sucrose gradients (10 mM HEPES, pH 7.3, 0.5 mM EGTA, 0.5 mM EGTA, 0.5 mM MgCl_2, and (4) PBS (137 mM NaCl, 2.7 mM KCl, 4.3 mM Na_2HPO_4 7 H_2O, 1.4 mM KH_2PO_4) were tested.
To test for direct interactions between the cytoplasmic C-terminal domain of APP and KLC, in vitro binding assays using GST fusion proteins were conducted. […]

[5] = molecular target: T2, GFP alone; experiment: GST pull-down on glutathione agarose beads, Western blot for GFP
Description: as §1
To test for direct interactions between the cytoplasmic C-terminal domain of APP and KLC, in vitro binding assays using GST fusion proteins were conducted. The results are shown in FIG. 5, Panel A. GST fused to full-length KLC1 (GST-KLC1) or full-length KLC2 (GST-KLC2) was incubated with a protein consisting of the C-terminal tail of APP fused to GFP (APP-GFP). APP-GFP bound to both GST-KLC1 and GST-KLC2 but not to GST alone. […]

[6] = molecular target: B6; experiment: GST pull-down, Western blot for the His tag
Description: as §1, §2

B1: no binding [1]; no binding [2].

B2: no binding [3].

B3: no binding [4].

B4: no binding [5].

B5: no binding [6].

B6: no binding [2].

— patent US6673332 (University of California, dated 2004)
